In article PMC3102069, “Charge Isomers of Myelin Basic Protein: Structure and Interactions with Membranes, Nucleotide Analogues, and Calmodulin” (PLoS ONE, 2011):

How the values were obtained:
calmodulin = calmodulin (UniProt P0DP23); conditions: cited from earlier work
[1] = molecular target: recombinant murine 18.5-kDa myelin basic protein, pseudodeiminated C8 charge isomer analogue (rmC8) (mouse); assay: ITC; CaM (100 µM) in the syringe titrated into rmMBP (5 µM) in the cell; 20 mM HEPES pH 7.5, 100 mM NaCl, 10 mM CaCl2; one-site model with floating, apparent stoichiometry; +25°C
[2] = molecular target: recombinant murine 18.5-kDa myelin basic protein, C1 charge isomer analogue (rmC1) (mouse) (UniProt P04370); assay: as above
[3] = molecular target: recombinant murine 18.5-kDa myelin basic protein, pseudodeiminated C8 charge isomer analogue (rmC8) (mouse); assay: ITC; CaM (100 µM) in the syringe titrated into rmMBP (5 µM) in the cell; 20 mM HEPES pH 7.5, 100 mM NaCl, 10 mM CaCl2; one-site model with floating, apparent stoichiometry; 35°C (temperature from Table 3)
[4] = molecular target: recombinant murine 18.5-kDa myelin basic protein, C1 charge isomer analogue (rmC1) (mouse) (UniProt P04370); assay: as above
[5] = molecular target: recombinant murine 18.5-kDa myelin basic protein, pseudodeiminated C8 charge isomer analogue (rmC8) (mouse); assay: ITC; CaM (100 µM) in the syringe titrated into rmMBP (5 µM) in the cell; 20 mM HEPES pH 7.5, 100 mM NaCl, 10 mM CaCl2; one-site model with floating, apparent stoichiometry; +20°C
[6] = molecular target: recombinant murine 18.5-kDa myelin basic protein, C1 charge isomer analogue (rmC1) (mouse) (UniProt P04370); assay: as above
[7] = molecular target: recombinant murine 18.5-kDa myelin basic protein, pseudodeiminated C8 charge isomer analogue (rmC8) (mouse); assay: ITC; CaM (100 µM) in the syringe titrated into rmMBP (5 µM) in the cell; 20 mM HEPES pH 7.5, 100 mM NaCl, 10 mM CaCl2; one-site model with floating, apparent stoichiometry; +30°C
[8] = molecular target: recombinant murine 18.5-kDa myelin basic protein, C1 charge isomer analogue (rmC1) (mouse) (UniProt P04370); assay: as above
[9] = molecular target: recombinant murine 18.5-kDa myelin basic protein, pseudodeiminated C8 charge isomer analogue (rmC8) (mouse); assay: SEC; Superdex 200 HR 10/30, room temperature; 20 mM HEPES pH 7.5, 100 mM NaCl, 10 mM CaCl2; rmMBP 25 µM with CaM 12.5-125 µM (rmMBP:CaM 2:1, 1:1, 1:2, 1:3, 1:5)
[10] = molecular target: recombinant murine 18.5-kDa myelin basic protein, C1 charge isomer analogue (rmC1) (mouse) (UniProt P04370); assay: as above
[11] = molecular target: recombinant murine 18.5-kDa myelin basic protein, pseudodeiminated C8 charge isomer analogue (rmC8) (mouse); assay: ITC; CaM (100 µM) in the syringe titrated into rmMBP (5 µM) in the cell; 20 mM HEPES pH 7.5, 100 mM NaCl, 10 mM CaCl2; one-site model with floating, apparent stoichiometry; +15°C
[12] = molecular target: recombinant murine 18.5-kDa myelin basic protein, C1 charge isomer analogue (rmC1) (mouse) (UniProt P04370); assay: as above

recombinant murine 18.5-kDa myelin basic protein, C1 charge isomer analogue (rmC1) (mouse), sequence (P04370 other isoform, or with tags, fused parts or gaps): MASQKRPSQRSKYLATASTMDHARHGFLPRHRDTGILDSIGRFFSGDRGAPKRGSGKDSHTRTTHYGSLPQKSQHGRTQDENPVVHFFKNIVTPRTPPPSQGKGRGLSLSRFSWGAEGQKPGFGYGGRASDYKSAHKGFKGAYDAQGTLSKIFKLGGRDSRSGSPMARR

Substance	Kd (calmodulin) [µM]	stoichiometry N [1]	stoichiometry N [2]	Kd [3] [µM]	stoichiometry N [3]	stoichiometry N [4]	stoichiometry N [5]	stoichiometry N [6]	stoichiometry N [7]	stoichiometry N [8]	stoichiometry N [9]	stoichiometry N [10]	Kd [11] [µM]	stoichiometry N [11]	stoichiometry N [12]
myelin basic protein (brain) (from UniProt P02687)	0.01	–	–	–	–	–	–	–	–	–	–	–	–	–	–
calmodulin (CaM), recombinant (from UniProt P0DP23 1-149) (natural protein)	–	1.2	1.9	1.9	0.8	0.9	1.3	1.5	1	1.4	2	2	1.2	1.5	1.5
